Reference: patent publication US20250188153A1

B1: MPV478 (antibody, V domains shown)
VH: EVQLVQSGAEVKKPGASVKVSCNASGYTFTGYYIHWVRQAPGQGLEWMGWINPRSGGTNYAQKFQGRVTLTRDTSITTAYMDVTRLRPDDTAVYYCATTREGIVLMPRGRGDDALDTWGQGTTVIVSS
VL: DIVMTQSPVSLTVSLGERATINCKSSQSVLSTSNNENYLAWYQQKPGQPPNLLIYWASTRESGVPDRFSGSGSGTDFTLTISSLQAEDVAVYYCQQYFATPITFGPGTKVDVK
B2: MPV482 (antibody, V domains shown)
VH: EVQLVQSGGGVVQPGRSLRLSCAASGFTFSSFAMHWVRQAPGKGLEWVALISDDGNNKYHADSVKGRFTISRDSSKNTLYLQMNSLRGEDTAVYYCARDGSVVGAAAHCDHWGQGTLVTVSS
VL: SYELTQPPSVSVSPGQTARITCSGDALPNQCAYWYQQKPGLAPVLLIYKDKERPSGIPERFSGSISGTTVTLTISGVQAEDEADYYCQSSDSSSTVVFGGGTKLTVL
B3: MPV467 (antibody, V domains shown)
VH: EVQLVESGGGVVRPGTSLRVSCAAFDFNFRDYGMHWVRQAPGKGLEWVAGIWYDGSNKDYADSVKGRFTISRDNSQNTLYLQMNSLRVEDTAVYYCARDPRTHREGALSHFDSWGQGTLVTVSS
VL: PNELTQDPAVSVALGQTVRITCQGDSLRNYFAGWYQQKPGQAPLLVLYGENIRPSGIPDRFSGSSSGNTVSLTITGAQAEDEADYYCNSRDNSGNHWVFGGGTRLTVL
B4: MPV414 (antibody, V domains shown)
VH: QVQLVQSGPEVKKPGSSVMVSCKTSGGNFNNFAISWVRQAPGQGLEWMGGIVPIFGTANYAQKSQDRVTITADPSSSTAYLQLSSLTSDDTAIYYCARDLGRSSNYYYYSVFESWGQGTLVTVSS
VL: DIVMTQSPATLSLSPGERATLSCRASQSVGDKLAWYQQKPGQAPRLLIYGASTRATDIPARFSGSGSGTEFTLTVSSLQPEDFAVYYCQQYENWPPITFGQGTRLEIK
B5: MPV491 (antibody, V domains shown)
VH: QVQLQESGPGLVKSSQTLSLTCTVSGGSISSVTSHWTWIRQHPGKGLEWIGYIFSSGTTYYSPSLRSRLTMSVDTSKNQFSLQLSSVTAADTAMYYCARGIYCGDSCYKGTDYWGRGTLVTVSS
VL: IRLMTQTPVTLPVTPGEPASISCRSSQSLLHSNGYNYLDWYLQKPGQSPQLLIYRGSTRASGVPDRFSGSGSGTEFTLKISRVEAEDVGVYYCMQGLQTPYTFGQGTKLESR
B6: MPV477 (antibody, V domains shown)
VH: EVQLVQSGAEVKKPGASVEVSCKTSGYTFTDYYLHWVRQAPGQGLEWMGWINPRSGGTKYGQKFQGRVTMTRDTSISTAYMDLRGLRSDDTAVYYCARAPLLTVYAVAHRSGENRFDPWGQGTVTVSS
VL: QPPSLSGAPGQTVTISCTGSGSNIGAGYDVNWYQCLPGTAPKLLMFDNSNRPSGVPDRFSGSRSGASASLAITGLQAEDEADYYCQSYDSGLSGWVFGGGTKLTVL
B7: MPV456 (antibody, V domains shown)
VH: QVQLQESGPGVVKPSGTLSLTCGVSGGSISSSYWWSWVRQPPGKGLEWIGEIYHSGSTNYNPSLKRRVTISVDKSKNQFSLKVTSVTAADTAVYYCARGPIQYYDILTEERVGYCDYWGQGTLVTVSS
VL: TLSASVGDRVTITCRASQSISSWLAWFQQKPGKAPKLLIYKTSSLESGVPSRFSGSGSGTEFTLTISSLQPDDFATYYCQEYNSYSRTFGQGTKVEIK
B8: MPV486 (antibody, V domains shown)
VH: EVQLVESGGHLVQSGGSLRLSCAASGFTFSNYILNWVRQAPGKGLEWISYITGGSSAIYYADSVKGRFTISRDDAKNSLYLQMNNLRAEDTAVYYCARSHGYDSSGYYYYFAMDVWGQGTTVTVSS
VL: QSVLTQPPSASGTPGQRVTISCSGSNSNIESNTVNWYQQIPGTAPKLLIYSDNRRPSGVPDRFSGSKSGTSASLAISGLQSEDEADYYCAAWDDSLIGYVFGTGTKVTV
B9: MPV454 (antibody, V domains shown)
VH: EVQLVESGGGLVKPGGSLRLSCSTSGFVFSSYAMHWVRQAPGKGLEHVSAISSTGDNTHYADSVKGRFTISRDNSRGRLYLQMTSVRPEDAALYYCVKDLYSGRFYYFLDDWGQGTRIIVSS
VL: DIQVTQSPSSLSASVGDRVTISCRASQNISNYLNWFQQRPGKAPKLLIYVASTLQSGAPSRFSGSGSGTDFTLTITDLQPEDFATYYCQQSYNTPPITFGQGTRLEIK
B10: MPV86 (antibody, V domains shown)
VH: QVQLVQSGAEVKKPGSSVKVSCKASGDTFNDVALSWVRQAPGQGLEWLGGIIPFFGTANYAQRFQDRVTITADASTSTAYLELGGLRSEDTAVYYCARGWSCRNITCFMMGYYFYIMDVWGQGTLVTVSS
VL: LSLSPGERATLSCRASQSVGNFLAWYQQKPGQTPRLLIQDASNRATGIPARFSGTGSGTDFTLTISSLEPEDFAVYYCQQRSNWPPTFGPGTKVDIK
B11: MPV487 (antibody, V domains shown)
VH: EVQLLESGGGLVQPGRSLRLSCTASGFTFDDYAMHWVRQLPGKGLEWVSGISWNSDNIGYADSVKGRFTISRDNGKNSLYLQMNSLRAEDTAFYYCAKDVRIDYDLLIGHIDYWGPGTLVTVSS
VL: TQSPVTLSLSPGERATLSCRASQSFGGYCAWYQQKPGQSPRLLIYDASNRATGVPARFSGSGSGTDFTLTISSLEPEDSAVYFCQQRGNWPIFGQGTRLEI
B12: MPV485 (antibody, V domains shown)
V domain 1: EVQLQEPGPGLVKPSETLSLTCTVSGGSISSTNSFWGWVRQPPGKGLEWIGSIYYSGTTYYNSSLKSRVTISVDTSKNQFSLRLSSVTAADTAVYYCARQGLTSSWYDGSGLDVWG
V domain 2: SYELTQPPSVSVSPGQTASITCSGDKLGNKYACWYQQRPGQSPVLVIYQDTKRPSGIPERFSGSNSGNTATLTISGTQAMDEADYYCQAWDSNTVVFGGGTKLTVL
B13: MPV481 (antibody, V domains shown)
VH: EVQLVQSGGGLVKPGGSLRLSCAASGLPFNNAWMNWVRQAPGKGLEWVGRIKSKIDGGTTEYAAPVKGRFTISRDDSENTLYLQMNSLRTEDTAVYYCTTEYYALLSGNYSDCWGQGTLVTVSS
VL: DIVMTQSPFSLSLSPGERATLSCRASQSIKRAYLGWYQQKPGQAPRLLIYGASNRATGIPDRFSGSGSGTDFTLTISRLEPEDFAVYYCQQYGDSPGGSFGQGTKLEIR
B14: MPV489 (antibody, V domains shown)
VH: EVQLLESGGGLVQPGGSLRLSCAASKFTFNNYEMNWLRQAPGKGLEWVSSISSSGDTIHNADSVKGRFIISRDNAKNSLHLQMNGLRAEDTAVYYCARAGSGWAYDAFDIWGLGTMVTVSS
VL: LSASVGDRVTITCRASQSISSFLNWYQQKPGKAPKLLMYAASSLPVGVPSRFSGSGSGPEYTLTISNLQPEDFATYYCQQGYSSPPTFGGGTRLEVK
B15: MPV488 (antibody, V domains shown)
VH: EVQLVQSGFEVKKPGASVKVSCKASGYNFNNYGISWVRQAPGQGLEWMGWISAYTGNTNEAQKFQGRVSMTTDTSTSTAYMEVRSLRSDDTAVYYCARDIGSSMFYSYFYGMDVWGQGTTVIVSS
VL: SLSVSLGERATINCKSSESVLYNSNNENYLDWYQQKPGQPPKLLIYWASTRASGVPDRFSGSASGTDFTLTISSLQAEDVAVYYCQQYYSTPRTFGQGTKVEIK

Target: hMPV B1 F (human metapneumovirus)
Assay: ELISA on coated recombinant protein, OD 405 nm

Row | Binder | EC50 [µg/mL]
1 | B1 | 0.022
2 | B2 | 0.072
3 | B3 | 0.12
4 | B4 | 0.034
5 | B5 | 2
6 | B6 | 0.02
7 | B7 | 0.49
8 | B8 | 0.1
9 | B9 | 0.12
10 | B10 | 0.073
11 | B11 | 0.065
12 | B12 | 0.078

Target: hMPV B2 F protein (his-tagged, not trypsin treated) (human metapneumovirus)
Assay: ELISA on coated recombinant protein, OD 405 nm

Row | Binder | EC50 [µg/mL]
13 | B1 | 0.027
14 | B2 | 0.33
15 | B13 | 0.16
16 | B14 | 4.2
17 | B3 | 0.37
18 | B4 | 1.8
19 | B5 | 2.1
20 | B6 | 0.063
21 | B7 | 0.61
22 | B8 | 0.23
23 | B9 | 5.2
24 | B10 | 5.7
25 | B11 | 0.37
26 | B12 | 0.18

Target: hMPV A2 F (human metapneumovirus)
Assay: ELISA on coated recombinant protein, OD 405 nm

Row | Binder | EC50 [µg/mL]
27 | B1 | 0.021
28 | B2 | 0.057
29 | B13 | 0.11
30 | B14 | 9.3
31 | B3 | 0.12
32 | B4 | 0.034
33 | B5 | 2.2
34 | B6 | 0.023
35 | B7 | 0.42
36 | B8 | 0.043
37 | B9 | 0.12
38 | B10 | 0.083
39 | B11 | 0.1
40 | B12 | 0.086

Target: hMPV A1 F monomer (human metapneumovirus)
Assay: ELISA on coated recombinant protein, OD 405 nm

Row | Binder | EC50 [µg/mL]
41 | B1 | 0.012
42 | B2 | 0.29
43 | B13 | 0.17
44 | B14 | 7
45 | B3 | 0.053
46 | B4 | 0.074
47 | B5 | 1.3
48 | B6 | 0.049
49 | B7 | 3.5
50 | B8 | 0.088
51 | B9 | 0.052
52 | B10 | 0.18
53 | B11 | 0.13
54 | B12 | 0.24

Target: hMPV A1 F (human metapneumovirus)
Assay: ELISA on coated recombinant protein, OD 405 nm

Row | Binder | EC50 [µg/mL]
55 | B1 | 0.059
56 | B2 | 0.13
57 | B13 | 0.31
58 | B14 | 5
59 | B3 | 0.38
60 | B4 | 0.15
61 | B5 | 1.5
62 | B6 | 0.083
63 | B7 | 1.4
64 | B8 | 0.053
65 | B9 | 0.49
66 | B10 | 0.3
67 | B11 | 0.11
68 | B12 | 0.11

Target: hMPV A1 F trimer (heated) (human metapneumovirus)
Assay: ELISA on coated recombinant protein, OD 405 nm

Row | Binder | EC50 [µg/mL]
69 | B1 | 0.024
70 | B2 | 0.35
71 | B13 | 0.28
72 | B14 | 4.5
73 | B3 | 0.26
74 | B5 | 1.1
75 | B6 | 0.087
76 | B7 | 1.8
77 | B8 | 0.22
78 | B9 | 0.14
79 | B12 | 0.32

Target: hMPV B2 F trimer (heated) (human metapneumovirus)
Assay: ELISA on coated recombinant protein, OD 405 nm

Row | Binder | EC50 [µg/mL]
80 | B1 | 0.02
81 | B13 | 0.31
82 | B14 | 18
83 | B3 | 0.65
84 | B5 | 1.7
85 | B6 | 0.063
86 | B7 | 1.8
87 | B8 | 0.24
88 | B9 | 0.15
89 | B11 | 0.54
90 | B12 | 0.36

Target: hMPV B2 F monomer (human metapneumovirus)
Assay: ELISA on coated recombinant protein, OD 405 nm

Row | Binder | EC50 [µg/mL]
91 | B1 | 0.02
92 | B2 | 0.2
93 | B15 | 0.063
94 | B13 | 0.2
95 | B14 | 1.3
96 | B3 | 0.06
97 | B4 | 0.19
98 | B5 | 0.48
99 | B6 | 0.21
100 | B8 | 0.11
101 | B9 | 0.046
102 | B10 | 0.21
103 | B11 | 0.099
104 | B12 | 0.18

Target: hMPV B2 F GCN4 (human metapneumovirus)
Assay: ELISA on coated recombinant protein, OD 405 nm

Row | Binder | EC50 [µg/mL]
105 | B1 | 0.02
106 | B2 | 0.092
107 | B15 | 0.073
108 | B13 | 0.11
109 | B14 | 2.3
110 | B3 | 0.061
111 | B4 | 0.061
112 | B5 | 0.5
113 | B6 | 0.037
114 | B7 | 0.69
115 | B8 | 0.1
116 | B9 | 0.068
117 | B10 | 0.12
118 | B11 | 0.071
119 | B12 | 0.16
